A short description of the data set: yeast display, Sf9 membrane polyspecificity reagent, FACS + sequencing; frameworks hold sequencing errors. In short, it runs like this:
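Sorting gates, low and high (top ~1%), were placed on anti-HA fluorescence to track expression and on streptavidin fluorescence to track reagent binding. A clone's polyreactivity label is taken from the gate it came out of. The reagent was 10% biotinylated, detergent-solubilized Sf9 membrane, applied for 1 hour at 4 °C to galactose-induced yeast display cells.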
Consider “QVQLVESGGGLVQAGGSLRLSCAASGRIFYRNVMGWYRQAPGKERELVAAISYRGGSTSYADSVKGRFTISRDNAKNTVYLPMHILKPEDTAVDYCNAARIRPAYSDREYWGQGTQVTVSS”, for which the “polyreactivity (PSR sort gate)” value is reported as “low polyreactivity”. For “QVQLVESGGGLVQAGGSLRLSCAASGSIFHSYAQGWYRQAPGKERELVASITASGDSTYYADSVKGRFTISRDNAKNTVYLQMNSLKPEDTAVYYCNTQAVYGGGEGGYDYWGQGTQVTVSS”, the “polyreactivity (PSR sort gate)” value is given as “low polyreactivity”. As to “QVQLVESGGGLVQAGGSLRLSCAASGSTFEYYAMGWYRQAPGKERELVAAITRSGSRTRYADSVKGRFTISRDNAKNTVYLQMNSLKPEDTAVYYCARLSSARYPFDSWGQGTQVTVSS”, the “polyreactivity (PSR sort gate)” value was “high polyreactivity”. With “QVQLVESGGGLVQAGGSLRLSCAASGSILFHYAMGWYRQAPGKERELVAAISRRGGSTYYADSVKGRFTISRDNAKNTVYFQMNSLKPEDNAVYYCAKYPSAYVDSDVTYDMDYWGQGTQVTVSS” the entry was “low polyreactivity”; with “QVHLVESGGGLVQAGGSLRLSCAASGFTFSYYAMGWYRQAPGKERELVAVISDRGGITYYADSVKGRFTISRDNAKNTVYLQMISLKPEDTAVYYCAAQNPRYNYRYYYWGQGTQVTVSS”, “low polyreactivity”. “QVQLVESWGGLVQAGGSLRLSCAASGSTFTPYVMGWSRQAPGKERELVAAISKRGGSTYYADSVKGRFTISRDNANNSVYLQMNSLKPADTAVYYCAAVQPAWGNGYWGQGTQVTVSS”: the “polyreactivity (PSR sort gate)” value was “high polyreactivity”. For the sequence “QVQLVESGGGLVQAGGSLRLSCSASGSIFGYYGMGLYRQAPGKERELVATISWSGDSTNYADSVKGRFTISRDNAKNTVYLQMNSLKPEDTAVYYCAAEWHAGWGGWLRYRHYEYWGQRTQVTVSS”, the “polyreactivity (PSR sort gate)” value is listed as “low polyreactivity”. As for “QVQLVESGGGIVQAGGRLRLRCAASGFTFGRYAMGWYRQEPGKEREFVAAITWSGGGTYYADSVKGRFTISRDNAKNTVYLQMNSLKPEDTAVYYCAADRRAYGGGYLGQGTQVTVSS”, the “polyreactivity (PSR sort gate)” value was “high polyreactivity”. On to “QVQLVESGGGLVQAGGSLRLSCAASGGIFWFNAMGRYRQAPGKEREFVAAITWRGGSTYYADSVKGRFTISRDNAKNTVYLQMHSLKPEDTAVYYCAATYWWHRSSGWDRVEYWGQGTQVNVSS”, for which the “polyreactivity (PSR sort gate)” value is “high polyreactivity”.

As for “QVQLVESGGGLVQAGGSLRLSCAASGRIIKVYAMAWYRQAPGKDRELVAAISSRGGSTYYADSVKGRFTISRDNAKNTVYLQMNSVKPEDTAVYYCAALVTWLHPKGDYWGQGTQVTVSS”, the “polyreactivity (PSR sort gate)” value is on record as “low polyreactivity”.

On to “QVQLVESGGGLVQAGGSLRLSCAASGRTLTGYAMGWYRQAPGKERELVAAITWRDSTYYADSVKGRFTISRDNAKNSVYLQMNSLKPEDTAVYYCNADNATYFVYEFNYWGQGTQVTVSS”, for which the “polyreactivity (PSR sort gate)” value is on record as “low polyreactivity”.

As for “QVQLVESGVGLVQAGGTLRLSGAASGLIFEYYAMGWYRQPPGKETELVAAITTSGGSTYYADSVKGRFTISRDIAKNTVYLQMNSLKPEDTAVYDCAAVGVRSRYYGYDYWGQGTLVTVSS”, the “polyreactivity (PSR sort gate)” value is “high polyreactivity”.

For the sequence “QVQLVESGGGLVQAGGSLRLSCDASGRIFYRYVMGWYRQAPGKERELVAAIRNSGGSTYYADSVKGRFTISRDNAKNTVYLQMNSMKPEDTAVYYCAKRYGTSFYVGSAKIGYDYWGQGTQVTLSS”, the “polyreactivity (PSR sort gate)” value was “high polyreactivity”. In the case of “QVQLVESGGGLVQAGGSLRLSCAASGRIFGPYTMGWYRQAPAKEREFVAAITRRGGSTYYADSVKGRFTISRDNAKNTVYLQMNSLKPEDTAVYYCAAVGLKRSLGYSWGQGTQVTVSS”, the “polyreactivity (PSR sort gate)” value was “low polyreactivity”. As for “QVQLVESGGGLVQAGGSLRLSCAASGFIFVTYAMGWYRQAPGKERELVAAITNSGGTTYYADSVKGRFTISRDNAKNTVYLQMNSLKPEDTAVYYCNKPYGAETAHREFDYWGQGTQVTVSS”, the “polyreactivity (PSR sort gate)” value is “low polyreactivity”. Take “QVQLVESGGGLVQAVGSLRLSCAASGSTFGKNAMGWYRQAPGKERELVAAISTSGTRSFYADSVKGRFTISRDTAKNTVYLQMNSLKPEDTAVYYCNAGRSSRAYYYWGQGTQVTVSS”: the “polyreactivity (PSR sort gate)” value is listed as “high polyreactivity”.

Regarding “QGQLVESGGGLVQAGGSLRLSCAASGSIFVRNAMGWYRQAPGKERELVAADSVKGRFTISRDNAKNTVYLQMNSLKPEDTAVYYCNKDYIIRRGAIVYYGFDYWGHGTQVTVSS”, the “polyreactivity (PSR sort gate)” value is on record as “low polyreactivity”. For the sequence “QVQLVESGGGLVQAGGSLSLSCAASGGTFSRYGMGWYRQAPGKEREMVAAISRSGGSTYYADSVKWRFTISRDNAKNTVYLQMNSLKPEDTAVYYCAAKLPIPYTTGRYAAMDYWGQGTQVTVSS”, the “polyreactivity (PSR sort gate)” value is “high polyreactivity”. Consider “QVQLVESGGGLVQAGGSLRLSCAASGFIFGYYVMGWSRQAPGKERELVAAISGSGGRTYYADSVKGRFTISRDNAKNTVYLQMNSLKPEDTAVYYCNAVAFYRDYNYWGQGTQVTVSS”, for which the “polyreactivity (PSR sort gate)” value is “high polyreactivity”. “QVQLVESGGGLVQAGCSLRLSCAASGSIFTNYGMGWYRQAPGKERELVADIRARSGSTYYADSVKGRFTISRDNAKNTVYLQMNSLKPEDTAVYYCAARRTSYRFDYSAGYRYGYWGQGTQVTVSS”: the “polyreactivity (PSR sort gate)” value was “high polyreactivity”. With “QVQLVESGGGLVQAGGSLRISCAASGRTFFGNAMGWYRQAPGKERELGASISTRGGSTYYADSVKGRFTISRDNAKNTVYLQINSLKPADTAVYDCAAPSQSRGYYYWGQGTQVNVSS”, the “polyreactivity (PSR sort gate)” value is recorded as “high polyreactivity”. For the sequence “QVQLVESGGGLVRAGGSLRISCAASGSIFDVNDMGWYRQAPGKERELVASISWNGGSPYYADSVKRRFTISRDNAKNTVYLQLNILNPEDTAVYYCNRSYRRPTSDLYDYWGQGTQVTVSS”, the “polyreactivity (PSR sort gate)” value is reported as “low polyreactivity”. With “QVQLVESGGGLVQAGGSLRLSCAASGIIFLDNARGWYRQAPGKERELVAAYADSVKGRFTISRDNAKNTVYLQMNSLKPEDTAVYYCNAGWFRNYGFSIVTYDYWGHGTQVTVSS”, the “polyreactivity (PSR sort gate)” value is “low polyreactivity”. On to “QVQLVQSGGGLVQAGGTLRLTCAASGSTYAVYAMGWYRQAPGKERELVATIRGRGGSTYYADSVKGRFTISRDYAKNTVYLQMNSLKPEDTAVYYCAADSYPSLGKYDSWGQGTQVTVSS”, for which the “polyreactivity (PSR sort gate)” value is reported as “high polyreactivity”. With “QVQLVESGGGLVQAGGSLRLSCAASGRTFGTYAMGWYRQAPGKERELVASITSGDSTNYADSVKGRFTISRDNAKNTVYLQMNSLKPEDTAVYYCNADIEFYVLFAYWGQGTQVTVSS”, the “polyreactivity (PSR sort gate)” value was “low polyreactivity”. For “QVQLVESGGGLVQAGGSLRLSCAASGRIFSTNAMGWYRQAPAKERELVAAITRGVSTKYADSVKRRFTISRDNAKNTVYLQMNSLKPEDTAVYYCAASVVWGPESDYWGQGTQVTVSS”, the “polyreactivity (PSR sort gate)” value is “low polyreactivity”. In the case of “QVQLVESGGGLVQAGGSLRLSCAASGNILIGNVMGWYRQAPGKERELVAAITSGGDTYYADSVKGRFTISRDNAKNTVYLQMNSLKPEDTAVYYCAADRPGQPKYEYWGQGTQVTVSS”, the “polyreactivity (PSR sort gate)” value is recorded as “low polyreactivity”. With “QVQLVESGGGLVQAGGSLRLSCAASGSILVANGMGWYRKAPGKERELVAGITTRGGNTYYADSVKGRFTISRDNAKNTVYLQMNSLKPEDTAVYYCATDLIGVWYWYEYWGQGTQVTVSS”, the “polyreactivity (PSR sort gate)” value is “low polyreactivity”.

In the case of “QVQLVESGGGLVQAGGSLRLSCAASGSTFIAYAMGWYRQAPGKESELVAAITSGDGTYYADSVKGRFTISRDNAKNTVYLQMNSLKPEDTAVYYCAVGYYWNEPLYWYGDFDYWGQGTQVTVSS”, the “polyreactivity (PSR sort gate)” value is given as “high polyreactivity”. With “QVQLVESAGGLVQAGGSLPLSCAASGSTFASNTMGWYRQAPGKERELVAAITQSGGTTYYADSVKGRFTISRDNAKNTVSLQMNSLKPEDTAVYYCATDVGYFYTVVGGYDYWGTGTQVTVSS”, the “polyreactivity (PSR sort gate)” value is “low polyreactivity”.
